Measurements reported in PMC10597343.

Molecular target: T1, AcrR (Escherichia coli) (UniProt P0ACS9)
T1 sequence: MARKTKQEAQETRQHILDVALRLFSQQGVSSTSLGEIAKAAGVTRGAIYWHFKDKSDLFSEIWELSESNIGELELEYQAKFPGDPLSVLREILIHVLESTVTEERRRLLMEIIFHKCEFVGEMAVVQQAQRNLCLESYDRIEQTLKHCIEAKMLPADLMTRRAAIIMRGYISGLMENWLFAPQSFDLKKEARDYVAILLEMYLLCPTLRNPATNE
Test: EMSA
Settings: EMSA with LightShift Chemiluminescent EMSA Kit, AcrR 0, 0.4 and 1 uM, as in ref 35; buffer, salt, pH and temperature not stated

Sequence	binding
CTTGCCATGCGATTTCCTTTTATCTTTCGACACGTAAAACGAATACCGGGGTTATCGGTCTGAATTGCGCAAAGTTTACGTTTAATTGTTTTTTTTAATAGCGGGAATAAGGGGCAGAGAAAAGAGTATTTCGGCGACTAACAAAAAATGGCTGTTTTTGAAAAAAATTCTAAAGGTTGTTTTACGACAGACGATAACAGGGTTGACGGCGATTGAGCCGACGGGTGGAAACCCAATACGTAATCAACGA (double strand) [fliDSTp]	no binding
TGCAAGTAGTAAATATGACAAGTTGATGTCATAAATGTGTTTCAGCAACTCGGAGGTATGCATTATTCCCACCCAGAATAACCAACTTTATTTTTATGCGGTTTCACCGCACCCCGTGATGTCGCCGGGAAGCCCCGGTAAAAAATAATTAGCATTAGAATAGTTGCGAT (double strand) [flhDCpS2]	no binding
